Tests used:
[1] = tested on: pErbB1 in NCI-ADRr cells; assay: ErbB1 phosphorylation dose response curves for ErbB ligands (ELISA); assay type: cell-based, human
Method: (§1) For stimulation of the cells, the cells are seeded in […] at 35,000 cells per well in 96 well tissue culture plates and incubated overnight in a humidified atmosphere of 5% CO2, 95% air and 37 degrees Celsius. Cells are then switched to serum free media: RPMI-1640 media (Gibco) supplemented with, 2 mM L-glutamine (Gibco) and units/mL Pen-Strep (Gibco). Starved cells are incubated in a humidified atmosphere of 5% CO2, 95% air and 37 degrees Celsius for 20-24 hours prior to stimulation.
(§2) Levels of protein phosphorylation in the stimulated cells are measured by ELISA. Capture antibodies against ErbB1 (R&D Systems, AF231), ErbB2 (R&D Systems, MAB1129), ErbB3 (R&D Systems, MAB3481) and AKT (Upstate, 05-591MG) are incubated in 384 well black flat-bottom polystyrene high-binding plates (Corning, Catalog #3708) overnight at room temperature. The ELISA plates are blocked with 2% bovine serum albumin (BSA) and phosphate buffered saline (PBS) for one hour then incubated with lysates diluted in 2% BSA, 0.1% Tween-20 and PBS for two hours at room temp. In between each incubation, the plates are washed three times with 0.05% Tween-20 in PBS. ELISAs for measuring phospho-ErbB1, -ErbB2 and -ErbB3 are incubated with phospho-tyrosine horseradish peroxidase (HRP) linked monoclonal antibody (R&D Systems, HAM1676) for two hours. ELISAs measuring phospho-AKT are incubated with primary serine 473 specific anti-phospho AKT mouse monoclonal antibody (Cell Signaling Technologies, Catalog #5102) for 2 hours, then incubated with Streptavidin-HRP (R&D Systems, Catalog # DY998,) for 30 minutes. All ELISAs are visualized with SuperSignal ELISA Pico Chemiluminescent Substrate (Pierce, Catalog #37069) and luminescent signal is measured using a luminometer.

[2] = tested on: pErbB2 in NCI-ADRr cells; assay: ErbB2 phosphorylation dose response curves for ErbB ligands (ELISA); assay type: cell-based, human
Method: as §1, §2

[3] = tested on: pErbB3 in NCI-ADRr cells; assay: ErbB3 phosphorylation dose response curves for ErbB ligands (ELISA); assay type: cell-based, human
Method: as §1, §2

[4] = tested on: pAKT in NCI-ADRr cells; assay: AKT phosphorylation dose response curves for ErbB ligands (ELISA); assay type: cell-based, human
Method: as §1, §2

[5] = biological target: ErbB1 (E1) (Homo sapiens, UniProt P00533); assay: ErbB computational model: BTC ligand binding rate parameters
Description: (§3) The ErbB receptor signaling network model consists of three receptors (ErbB1, ErbB2, ErbB3), a receptor phosphatase, phosphatidylinositol 3-kinase (PI3K, which binds the receptors) and components of the PI3K-AKT cascade (phosphatidylinositol bisphosphate, PIP2, phosphoinositide-dependent protein kinase, PDK1, PTEN deleted from chromosome 10, PTEN, serine, threonine protein kinase also known as protein kinase B, AKT, Protein phosphatase 2A, PP2A) (see Table 8 below).
(§4) Many of the reaction rate parameters are unknown in the cell system we studied and therefore had to be estimated (see Table 10 below). To avoid biasing the starting point, all parameters were set to default values (Aldridge, B. B. et al. (2006) Nat. Cell. Biol. 8:1195-1203). The number of parameters estimated was limited by performing the estimation in two stages: first the model was calibrated against the experimentally observed ErbB receptor phosphorylation data; second, the parameters sensitive to AKT phosphorylation were optimized against the experimental data. Estimated values were only accepted if the parameters were constrained under multiple parameter runs using a genetic algorithm with a population size of 50 and 25 generations (Mathworks, Mass.). […] The normalized sensitivities of each species were integrated over the two hour stimulation, and parameters with normalized, integrated sensitivities greater than an arbitrary threshold of 1000 are listed in Table 11 below. As mentioned above, ErbB4 phosphorylation was not included into the parameter estimation because the cell line studied had barely detectable ErbB4 (see Table 3 below). ErbB4 reactions are parameterized according to ErbB3 reactions.

[6] = biological target: ErbB3 (E3) (Homo sapiens, UniProt P21860); assay: ErbB computational model: HRG ligand binding rate parameters
Description: as §3, §4

[7] = tested on: MALME3M xenograft tumor model; assay: Xenograft efficacy study with Ab #6, MALME3M model; assay type: in vivo, mouse
Description: (§5) In this example, four xenograft tumor models were used to identify tumor cell lines that responded to treatment with the anti-ErbB3 antibody Ab #6. The four xenograft tumor models studied represent different indications: MALME3M (melanoma cancer line; ATCC No. HTB-64), ADRr (ovarian cancer cell line; NCI-60, cosmic sample ID No. 905987), ACHN (renal cancer cell line; ATCC No. CRL-1611) and DU145 (prostate cancer cell line; ATCC No. HTB-81).
(§6) In the xenograft tumor models, mice (nu/nu mice: 3-4 week old female mice, T-cell deficient; outbred; Albino background; from Charles River Labs, Wilmington, Mass.) are implanted in the right flank with 3.5×10^6-3×10^8 cells/mouse (depending on cell line) in 200 μl via subcutaneous injection. Mice are monitored for initial tumor growth. Tumor cells are allowed to grow for several days until the tumor volume is approximately 200 mm^3. The tumor volume is calculated as V=(π/6 (L×W^2). The mice are treated with the Ab #6 antibody at a dosage of 600 μg/injection every 3 days (qd3). Control mice are treated with phosphate buffered saline (PBS).
(§7) Tumor volume is measured for 60-80 days.
(§8) As a measure of responsiveness of the tumor to Ab #6, the exponential growth rate is determined, which described the experimental data best. The following formula is used to describe the exponential growth. […]

[8] = tested on: DU145 xenograft tumor model; assay: Xenograft efficacy study with Ab #6, DU145 model; assay type: in vivo, mouse
Description: as §5, §6, §7, §8

[9] = tested on: ADRr xenograft tumor model; assay: Xenograft efficacy study with Ab #6, ADRr model; assay type: in vivo, mouse
Description: as §5, §6, §7, §8

[10] = tested on: ACHN xenograft tumor model; assay: Xenograft efficacy study with Ab #6, ACHN model; assay type: in vivo, mouse
Description: as §5, §6, §7, §8

[11] = tested on: IGROV1 xenograft tumor model; assay: Xenograft study with Ab #6 (predicted set), IGROV1; assay type: in vivo, mouse
Method: as §6
(§9) To test these model predictions, three additional in vivo xenograft studies were performed. The IGROV1, OVCAR8 and SKOV3 cell lines were used in xenograft studies conducted as described in Example 1, wherein mice were treated with 600 μg of Ab #6 every 3 days or with PBS as a control. The xenograft responses, as determined by changes in tumor volume (in mm^3) over time, are summarized in the graphs of FIGS. 9A-9C. Again, the Growth Rate Reduction (GRR) value for each cell line was calculated using the following formula:
(§10) Growth Rate Reduction=1−(Ab #6 Growth Rate)/(PBS Growth Rate)

[12] = tested on: OVCAR8 xenograft tumor model; assay: Xenograft study with Ab #6 (predicted set), OVCAR8; assay type: in vivo, mouse
Method: as §6, §9, §10

[13] = tested on: SKOV3 xenograft tumor model; assay: Xenograft study with Ab #6 (predicted set), SKOV3; assay type: in vivo, mouse
Method: as §6, §9, §10

[14] = biological target: ErbB3 (Homo sapiens, UniProt P21860); assay: Ab #6 rate constants measured by Kinexa (inhibitor parameter values); assay type: binding
[15] = estimated using known Kds and initial dose response curves
[16] = Ab #6 600 μg/injection every 3 days vs PBS, negative GRR set to zero
[17] = Ab #6 600 μg/injection every 3 days vs PBS
[18] = 600 μg of Ab #6 every 3 days vs PBS

## AR: ErbB ligand amphiregulin
[1]
  EC50: 37 nM
  pErbB1 % stimulation at 5 min relative to maximum: 95.0%
[2]
  pErbB2 % stimulation at 5 min relative to maximum: 54.0%
[3]
  EC50: 380 nM
  pErbB3 % stimulation at 5 min relative to maximum: 17.0%
[4]
  pAKT % stimulation at 5 min relative to maximum: 28.0%

## BTC: ErbB ligand betacellulin, binds primarily to ErbB1
[1]
  EC50: 5.7 nM
[3]
  EC50: 100 nM
[5]; [15]
  forward binding rate: ~100000 M⁻¹ s⁻¹
[5]; model parameter
  kf3: BTC binding to E1: 5.00 × 10^−11 molecules−1 sec−1
  kf4: BTC binding to E1 homodimers: 5.00 × 10^−11 molecules−1 sec−1
  kf5: BTC binding to E1 heterodimers: 5.00 × 10^−11 molecules−1 sec−1
  kr3: BTC dissociation from E1: 0.001 s⁻¹
[5]; model parameter, endosome
  kf129: BTC binding in the endosome: 3.8 molecules−1 sec−1

## Epiregulin: ErbB ligand epiregulin
[1]
  pErbB1 % stimulation at 5 min relative to maximum: 9.0%
[2]
  pErbB2 % stimulation at 5 min relative to maximum: 18.0%
[4]
  pAKT % stimulation at 5 min relative to maximum: 11.0%

## HB-EGF: ErbB ligand, heparin-binding epidermal growth factor
[1]
  EC50: 21 nM
  pErbB1 % stimulation at 5 min relative to maximum: 87.0%
[2]
  EC50: 230 nM
  pErbB2 % stimulation at 5 min relative to maximum: 94.0%
[3]
  pErbB3 % stimulation at 5 min relative to maximum: 32.0%
[4]
  pAKT % stimulation at 5 min relative to maximum: 20.0%

## HRG1-β: ErbB ligand heregulin, binds to ErbB3 and ErbB4
[1]
  pErbB1 % stimulation at 5 min relative to maximum: 0.0%
[2]
  EC50: 7 nM
  pErbB2 % stimulation at 5 min relative to maximum: 43.0%
[3]
  EC50: 9.9 nM
  pErbB3 % stimulation at 5 min relative to maximum: 100.0%
[4]
  EC50: 1.9 nM
  pAKT % stimulation at 5 min relative to maximum: 100.0%
[6]; [15]
  forward binding rate: ~100000 M⁻¹ s⁻¹
[6]; model parameter
  kf2: HRG binding to E3:E2 dimers: 5.00 × 10^−11 molecules−1 sec−1
  kr1: HRG dissociation from E3: 0.001 s⁻¹
  kr2: HRG dissociation from E3:E2 dimers: 0.001 s⁻¹
[6]; model parameter, endosome
  kf127: HRG binding in the endosome: 3.8 molecules−1 sec−1
[6]; model parameter, unit conversion from 1e5 M−1s−1/(Vmedia*Av/Num_cells)
  kf1: HRG binding to E3 or E4: 5.00 × 10^−11 molecules−1 sec−1

## TGFα: ErbB ligand, transforming growth factor alpha
[1]
  EC50: 30 nM

B1: Epigen: ErbB ligand epigen (protein, UniProt Q6UW88 23-154, looked up)
Epigen: AAVTVTPPITAQQGNWTVNKTEADNIEGPIALKFSHLCLEDHNSYCINGACAFHHELEKAICRCFTGYTGERCEHLTLTSYAVDSYEKYIAIGIGVGLLLSGFLVIFYCYIRKRCLKLKSPYNVCSGERRPL
[1]
  pErbB1 % stimulation at 5 min relative to maximum: 12.0%
[2]
  pErbB2 % stimulation at 5 min relative to maximum: 25.0%
[3]
  pErbB3 % stimulation at 5 min relative to maximum: 3.0%
[4]
  pAKT % stimulation at 5 min relative to maximum: 11.0%

B2: Ab #6: anti-ErbB3 antibody described in WO 2008/100624, VH and VL sequences of SEQ ID NOs: 1 and 2 (antibody, V domains shown)
VH: EVQLLESGGGLVQPGGSLRLSCAASGFTFSHYVMAWVRQAPGKGLEWVSSISSSGGWTLYADSVKGRFTISRDNSKNTLYLQMNSLRAEDTAVYYCTRGLKMATIFDYWGQGTLVTVSS
VL: QSALTQPASVSGSPGQSITISCTGTSSDVGSYNVVSWYQQHPGKAPKLIIYEVSQRPSGVSNRFSGSKSGNTASLTISGLQTEDEADYYCCSYAGSSIFVIFGGGTKVTVL
[7]; [16]
  GRR [%] (Tumor Growth Rate Reduction): 0%
[7]; compared to PBS control
  effect of antibody treatment on tumor growth: did not inhibit tumor growth
[8]; [17]
  GRR [%] (Tumor Growth Rate Reduction): 72.6%
[8]; compared to PBS control
  effect of antibody treatment on tumor growth: inhibited tumor growth
[9]; [16]
  GRR [%] (Tumor Growth Rate Reduction): 0%
[9]; compared to PBS control
  effect of antibody treatment on tumor growth: did not inhibit tumor growth
[10]; [17]
  GRR [%] (Tumor Growth Rate Reduction): 28.0%
[10]; compared to PBS control
  effect of antibody treatment on tumor growth: inhibited tumor growth
[11]
  experimentally observed responsiveness based on GRR value: non-responder
[11]; [18]
  GRR [%] (Tumor Growth Rate Reduction): 6.3%
[12]
  experimentally observed responsiveness based on GRR value: responders
[12]; [18]
  GRR [%] (Tumor Growth Rate Reduction): 91.4%
[13]
  experimentally observed responsiveness based on GRR value: responders
[13]; [18]
  GRR [%] (Tumor Growth Rate Reduction): 19.6%
[14]
  Ab #6 on-rate for binding to ErbB3 before unit conversion: calculated as 1.43e5 M^−1s^−1/(Vmedia*Av/Num_cells).
[14]; avidity due to volume reduction (Vmedia/Numcells)/Vshell
  kf Ab #6 _2: Ab #6 inhibitor binding to a second ErbB3: 4.96E−05 molecules^−1 sec^−1
[14]; unit conversion of on-rate/(Vmedia*Av/Num_cells), Num_cells = 30,000 per well
  kf Ab #6 _1: Ab #6 inhibitor binding to ErbB3: 7.15E−11 molecules^−1 sec^−1
